Measured values from US20180155451A1 (published 2018).

T1: FcγRIIa R (human, UniProt P12318 34-217)
T1 construct: extracellular domain; also called FcgRIIa R type; 2aR
T1 sequence (looked up): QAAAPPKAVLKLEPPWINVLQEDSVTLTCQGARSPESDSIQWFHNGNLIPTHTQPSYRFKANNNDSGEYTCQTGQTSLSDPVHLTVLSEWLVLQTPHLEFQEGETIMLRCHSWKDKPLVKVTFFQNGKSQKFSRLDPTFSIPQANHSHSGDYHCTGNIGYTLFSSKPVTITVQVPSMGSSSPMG

B1: GpH7-A5/GpH7-B3 variant P271_04F/GpL16-k0 (antibody, human IgG1, kappa)
heavy 1: not shown
heavy 2: not shown
light: DIVMTQSPLSLPVTPGEPASISCQASESLVHSNRNTYLHWYLQKPGQSPQLLIYKVSNRFSGVPDRFSGSGSGTDFTLKISRVEAEDVGVYYCSQNTHVPPTFGQGTKVEIERTVAAPSVFIFPPSDEQLKSGTASVVCLLNNFYPREAKVQWKVDNALQSGNSQESVTEQDSKDSTYSLSSTLTLSKADYEKHKVYACEVTHQGLSSPVTKSFNRGEC
notes: heterodimerized; also called He Ab P271_04F
B2: GpH7-A5/GpH7-B3 variant P271_06M/GpL16-k0 (antibody, human IgG1, kappa)
heavy 1: not shown
heavy 2: not shown
light: B1 light
notes: heterodimerized; also called He Ab P271_06M
B3: GpH7-A5/GpH7-B3 variant P271_07I/GpL16-k0 (antibody, human IgG1, kappa)
heavy 1: not shown
heavy 2: not shown
light: B1 light
notes: heterodimerized; also called He Ab P271_07I
B4: GpH7-A5/GpH7-B3 variant P271_11K/GpL16-k0 (antibody, human IgG1, kappa)
heavy 1: not shown
heavy 2: not shown
light: B1 light
notes: heterodimerized; also called He Ab P271_11K
B5: GpH7-A5/GpH7-B3 variant P271_12R/GpL16-k0 (antibody, human IgG1, kappa)
heavy 1: not shown
heavy 2: not shown
light: B1 light
notes: heterodimerized; also called He Ab P271_12R
B6: GpH7-A5/GpH7-B3 variant P271_13S/GpL16-k0 (antibody, human IgG1, kappa)
heavy 1: not shown
heavy 2: not shown
light: B1 light
notes: heterodimerized; also called He Ab P271_13S
B7: GpH7-A5/GpH7-B3 variant P271_20W/GpL16-k0 (antibody, human IgG1, kappa)
heavy 1: not shown
heavy 2: not shown
light: B1 light
notes: heterodimerized; also called He Ab P271_20W
B8: GpH7-A5/GpH7-B3 variant Q295_02A/GpL16-k0 (antibody, human IgG1, kappa)
heavy 1: not shown
heavy 2: not shown
light: B1 light
notes: heterodimerized; also called He Ab Q295_02A
B9: GpH7-A5/GpH7-B3 variant N325_06M/GpL16-k0 (antibody, human IgG1, kappa)
heavy 1: not shown
heavy 2: not shown
light: B1 light
notes: also called He Ab N325_06M
B10: GpH7-A5/GpH7-B3 variant A327_09D/GpL16-k0 (antibody, human IgG1, kappa)
heavy 1: not shown
heavy 2: not shown
light: B1 light
notes: also called He Ab A327_09D
B11: GpH7-A5/GpH7-B3 variant A327_10E/GpL16-k0 (antibody, human IgG1, kappa)
heavy 1: not shown
heavy 2: not shown
light: B1 light
notes: also called He Ab A327_10E
B12: GpH7-A5/GpH7-B3 variant A330_01G/GpL16-k0 (antibody, human IgG1, kappa)
heavy 1: not shown
heavy 2: not shown
light: B1 light
notes: also called He Ab A330_01G
B13: GpH7-A5/GpH7-B3 variant A330_05P/GpL16-k0 (antibody, human IgG1, kappa)
heavy 1: not shown
heavy 2: not shown
light: B1 light
notes: also called He Ab A330_05P
B14: GpH7-A5/GpH7-B3 variant A330_11K/GpL16-k0 (antibody, human IgG1, kappa)
heavy 1: not shown
heavy 2: not shown
light: B1 light
notes: also called He Ab A330_11K
B15: GpH7-A5/GpH7-B3 variant A330_12R/GpL16-k0 (antibody, human IgG1, kappa)
heavy 1: not shown
heavy 2: not shown
light: B1 light
notes: also called He Ab A330_12R
B16: GpH7-A5/GpH7-B3 variant A330_15Y/GpL16-k0 (antibody, human IgG1, kappa)
heavy 1: not shown
heavy 2: not shown
light: B1 light
notes: also called He Ab A330_15Y
B17: GpH7-A5/GpH7-B3 variant A330_19Q/GpL16-k0 (antibody, human IgG1, kappa)
heavy 1: not shown
heavy 2: not shown
light: B1 light
notes: also called He Ab A330_19Q
B18: GpH7-A5/GpH7-B3 variant E269_09D/GpL16-k0 (antibody, human IgG1, kappa)
heavy 1: not shown
heavy 2: not shown
light: B1 light
notes: also called He Ab E269_09D
B19: GpH7-A5/GpH7-B3 variant E333_04F/GpL16-k0 (antibody, human IgG1, kappa)
heavy 1: not shown
heavy 2: not shown
light: B1 light
notes: also called He Ab E333_04F
B20: GpH7-A5/GpH7-B3 variant E333_05P/GpL16-k0 (antibody, human IgG1, kappa)
heavy 1: not shown
heavy 2: not shown
light: B1 light
notes: also called He Ab E333_05P
B21: GpH7-A5/GpH7-B3 variant E333_07I/GpL16-k0 (antibody, human IgG1, kappa)
heavy 1: not shown
heavy 2: not shown
light: B1 light
notes: also called He Ab E333_07I
B22: GpH7-A5/GpH7-B3 variant E333_08L/GpL16-k0 (antibody, human IgG1, kappa)
heavy 1: not shown
heavy 2: not shown
light: B1 light
notes: also called He Ab E333_08L
B23: GpH7-A5/GpH7-B3 variant E333_09D/GpL16-k0 (antibody, human IgG1, kappa)
heavy 1: not shown
heavy 2: not shown
light: B1 light
notes: also called He Ab E333_09D
B24: GpH7-A5/GpH7-B3 variant E333_15Y/GpL16-k0 (antibody, human IgG1, kappa)
heavy 1: not shown
heavy 2: not shown
light: B1 light
notes: also called He Ab E333_15Y
B25: GpH7-A5/GpH7-B3 variant G236_14T/GpL16-k0 (antibody, human IgG1, kappa)
heavy 1: not shown
heavy 2: not shown
light: B1 light
notes: also called He Ab G236_14T
B26: GpH7-A5/GpH7-B3 variant G237_02A/GpL16-k0 (antibody, human IgG1, kappa)
heavy 1: not shown
heavy 2: not shown
light: B1 light
notes: also called He Ab G237_02A
B27: GpH7-A5/GpH7-B3 variant G237_04F/GpL16-k0 (antibody, human IgG1, kappa)
heavy 1: not shown
heavy 2: not shown
light: B1 light
notes: also called He Ab G237_04F
B28: GpH7-A5/GpH7-B3 variant G237_06M/GpL16-k0 (antibody, human IgG1, kappa)
heavy 1: not shown
heavy 2: not shown
light: B1 light
notes: also called He Ab G237_06M
B29: GpH7-A5/GpH7-B3 variant G237_08L/GpL16-k0 (antibody, human IgG1, kappa)
heavy 1: not shown
heavy 2: not shown
light: B1 light
notes: also called He Ab G237_08L

Molecular target: T2, FcγRIa (human, UniProt P12314 16-292)
T2 construct: extracellular domain; also called FcgRI; CD64
T2 sequence (P12314 16-292): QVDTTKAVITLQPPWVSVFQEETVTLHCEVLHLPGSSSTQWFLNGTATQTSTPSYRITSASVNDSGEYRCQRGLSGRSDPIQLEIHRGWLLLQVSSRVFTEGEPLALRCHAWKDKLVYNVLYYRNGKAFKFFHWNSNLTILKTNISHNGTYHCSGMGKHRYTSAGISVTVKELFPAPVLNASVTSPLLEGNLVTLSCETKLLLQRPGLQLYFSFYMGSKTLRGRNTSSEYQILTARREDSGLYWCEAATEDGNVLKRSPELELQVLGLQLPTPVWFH
Test: SPR; vs GpH7-A5/GpH7-B3/GpL16-k0=100

In order of rising He/Con_1a:
1. B1  102 % of control
2. B2  102 % of control
3. B3  102 % of control
4. B5  102 % of control
5. B6  102 % of control
6. B4  103 % of control
7. B7  103 % of control
8. B8  104 % of control

Molecular target: T1, FcγRIIa R
Test: SPR Biacore; vs GpH7-A5/GpH7-B3/GpL16-k0 =100

In order of rising He/Con_2aR:
1. B24  101 % of control
2. B16  102 % of control
3. B19  102 % of control
4. B22  103 % of control
5. B23  103 % of control
6. B25  103 % of control
7. B15  104 % of control
8. B17  104 % of control
9. B21  104 % of control
10. B18  105 % of control
11. B20  105 % of control
12. B12  109 % of control
13. B11  110 % of control
14. B14  110 % of control
15. B13  115 % of control
16. B10  124 % of control
17. B26  126 % of control
18. B27  126 % of control
19. B28  133 % of control
20. B29  133 % of control
21. B9  152 % of control
